Laboratory results published in US12305172.
Read-outs that look alike come from different tables or passages of the source.

Columns and labels:
[1] = target: thrombin (Bos taurus) (UniProt P00735+P00735); assay: inhibition; conditions: clotting time
[2] = target: thrombin (UniProt P00734+P00734); conditions: CD titration at 295 nm, water, no added cations

## GGUUGGUGUGGUUGG [iso-rTBA]
[1]; all 2'-5'-linked RNA (3'-OH), SEQ ID NO:1, 0.25 uM oligomer, 0.1 NIH U thrombin, 3.5 uM human fibrinogen, 37 °C
  activity: 70.9 s
[2]; all 2'-5'-linked RNA (3'-OH), SEQ ID NO:1, n = 4 thrombin per oligomer
  Kd: 3400 nM

## GGTTGGTGTGGTTGG [isoTBA]
[1]; 2'-5'-linked isoDNA analogue of TBA [1-15 (all 2'-5'-linked isoDNA)], stated for comparison with TBA and iso-rTBA
  activity: 73.4 s

## GGTTGGTGTGGTTGG [TBA]
[2]; n = 1
  Kd: 380 nM
